Reference: patent US6399759
Each block holds one substance with its values, some of them ahead of it.

Target: T1, Soli E2 (Solenopsis invicta)
T1 sequence: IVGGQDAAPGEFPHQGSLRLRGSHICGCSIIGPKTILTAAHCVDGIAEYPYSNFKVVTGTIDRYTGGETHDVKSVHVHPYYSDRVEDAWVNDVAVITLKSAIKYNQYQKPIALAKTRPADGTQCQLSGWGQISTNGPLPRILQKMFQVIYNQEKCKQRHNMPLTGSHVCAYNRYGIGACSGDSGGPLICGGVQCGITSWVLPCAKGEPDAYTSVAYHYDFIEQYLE
Experiment: cell-based or functional assay

Sequence of α-1-Proteinase Inhibitor (P01009 25-418 limits assumed): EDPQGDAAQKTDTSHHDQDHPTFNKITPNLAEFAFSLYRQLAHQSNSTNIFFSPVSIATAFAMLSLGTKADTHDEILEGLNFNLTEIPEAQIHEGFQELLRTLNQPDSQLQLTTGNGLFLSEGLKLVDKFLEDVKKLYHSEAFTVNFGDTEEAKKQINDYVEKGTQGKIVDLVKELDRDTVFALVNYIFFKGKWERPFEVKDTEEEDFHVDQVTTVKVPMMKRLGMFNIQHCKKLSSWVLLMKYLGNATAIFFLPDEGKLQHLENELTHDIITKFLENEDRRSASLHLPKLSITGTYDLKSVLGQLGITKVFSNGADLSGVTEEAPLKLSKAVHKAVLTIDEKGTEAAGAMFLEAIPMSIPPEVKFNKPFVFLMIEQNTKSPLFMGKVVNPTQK

Substance: Canadian Goose OM Domain III (from UniProt P68393 1-54)
IC50: 27.3 nM

Substance: Potato Inhibitor I
IC50: 9.13 nM

Substance: Z-Gly-Leu-Phe-CK (peptide)
Max Inhibition Rate/IC50: < 0.1

Substance: Z-Phe-Leu-Phe-^p(OPh)2 (peptide)
Max Inhibition Rate/IC50: < 0.1

Substance: Z-Phe-Phe-^p(OPh)2 (peptide)
Max Inhibition Rate/IC50: < 0.1

Substance: Z-Val-Val-^p(OPh)2 (peptide)
Max Inhibition Rate/IC50: 76.8

Substance: α-1-Proteinase Inhibitor (from UniProt P01009 25-418)
IC50: 0.604 nM

Next, values leading:

Max Inhibition Rate/IC50: 666
Substance: Boc-Ala-Pro-Val-^p(OPh)2 (peptide)

Max Inhibition Rate/IC50: 735
Substance: Boc-Val-Pro Val-^p(OPh)2 (peptide)

IC50: 7.68 nM
Substance: Canadian Goose OM

IC50: 6.03 nM
Substance: Domestic Goose OM

IC50: 5.58 nM
Substance: Domestic Goose OM Domain III (from UniProt P68389 1-54)

IC50: 1.89 nM
Substance: Eglin C (from UniProt P01051 1-70)

IC50: 10.1 nM
Substance: Potato Inhibitor II

Max Inhibition Rate/IC50: 27.2
Substance: Z-Ala-Val-^p(OPh)2 (peptide)

Max Inhibition Rate/IC50: < 0.1
Substance: Z-Leu-Phe-^p(OPh)2 (peptide)

Max Inhibition Rate/IC50: 36.6
Substance: Z-Pro-Val-^p(OPh)2 (peptide)
